A protein production outcome set (Wang et al. 2014)

Test: label from the status in PepcDB records
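Further: failed if final PepcDB status was selected cloned or expressed and not failed if soluble or beyond.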

With “MSENLTMSELMDSFELKHFHKGEIVKGKVISVKNDEIIVNIGHFADGVVPRNEISNDKNFDINSINVDDDIFVMVLSGDDGEGNVLLSKKRADAIKVCDDLKEAFEEEKSIKVSLKEVVKGGIVGDFNGLRVFMPASQCAGRRIENLEELVGKTLEVRVIEFNKENRKVVVSRRVIDEEIRNNEKKALWSSIKEGEKRKGKVTRLAKFGAFVDIGGVEGLVHLSDMSWSRVHKPEEVVSVGDEVEVFVSEVDMDRERIALSLKDVIKNPWETLEGLKVGNVVLGKVTNFIKVGAFVEVLPGIEGLVHISEITDENIAKPSDILELGQEVKVKILNIDDENKKMSLSIKDAVETSNEYMQYNDEEEGYSLADLFKGLNLLEHHHHHH” as the sequence, how does the protein production read?
The protein production was “not failed”.

For “MSENQSEEVQQIEKLYEFSERLNASKDKSQNVEDYEGIIKMSKTSMKAKQLASQLIPRYFKFFPSLSTEAFDAHMDCIDDGDLGVRVQAIRGLPLFCKDTPDILSKIVDVLVQLLNTEEPVERDAVHKALMSLLRQDPKASSTALFTHAGVTPTTDDQIREKVLNFIRDKVIPLKGELLKPQEEMERHITDLIKQSLEDVTGGEFKMFMDFLTSLSIFGGKAPPERMQELVEIIEGQADLNAQFEFSDTDHIDRLISCLQLALPFFARGAPSSRFLIYLNKHIIPVFDKLPEERKLDLLKALADISPYTTAQEARQLLPSIVELLKIYMPARKTGEEMNFTYVECLLYAFHHLAHKVPNATNSLCGYKIVTGQPSDRLGEDFSELNKDFTERLTIVEDLTKATMKKLTQGMTEHNKAMSAAKTDEEKASIVSTLTCAIFYFS”, which protein production is on record?
The protein production was “failed”.

Which protein production does the source give for “MSEPFTPGDLKTILHSKRANLYYLEHCRVLVNGGRVEYVTDAGKQSLYWNIPIANTTTLLLGTGTSVTQAAMRELAKAGVMVGFCGGGGTPLFSAGEVEMEVAWQSPQSEYRPTEYLQWWARFWFDDDKRLQAAKQLQQARLARIRAQWLDNRQLREAGFEIEPSRLTQLLDASLASLERAPDHTALLTEEARLSKQLFRLAAQATAYGEFTRAKRGGGVDPANRFLDHGNYLAYGLGATAAWVLGLPHSLAILHGKTRRGGLVFDAADLVKDAAILPQAFVSAMKGDDEQTFRQQCIEQLARGEALDFMIDQLQRIAEQLGRDG” here?
The protein production was “failed”.

With “MSEPRLPERAEWGTFALILACYGAWLAVIFGLAGLSLWLAIAAMGLVAALHSSLTHEALHGHPFRYRWLNEALMALPLTLCIPYNRFRDLHLAHHLDANLTDPYDDPESNYLDPAIWSRLPGWQRRLYALNNTLAGRMVLGPLIGTACFLRDEARGALRGDRAILLAWALHLPGMAGVLWVVSLSPMPIWAFALSAYIGLGLLKIRTFLEHRAHEKSRARTVVIEDRGLLAFLFLNNNYHVVHHMNPGAPWYALPALYRAGKERYLGCNEGYSYRSYGEVFRRYFWRAKDPVPHPLWPKP” as the sequence, how does the protein production read?
Its protein production is “failed”.

Which protein production does the source give for “MSEPSLDKSSFNQPSWRNALAGLQMLFVAFGALVLMPLITGLDPSVALFTAGIGTILFQFITKQQVPLFLASSFVFIAPIAYSVQTWGIAVAMGSLFVTGLVYVLIASVVAVRGAGFLHKLMPPVVTGPIIMVIGLSLAPIAVNMAMGKAGDGSAVLFPYADSLIVSMSALITTLLVATLGKGIFRLIPIMAGVFVGYIMASVMGMVSTEAIANSEWFAIPNFVTPEFNLTAILFMLPVAIAPAIEHVGDIIAIGSVTGKDYTKSPGLHRTLLGDGLATSLASLFGGPPNTTYSEVTGAVMLTKMFNPKIMLWAAAFAIGLAFVAKFGLALQTIPAPVMGGILILLFGSIAGVGMNILIKAQVDLAEQRNLVIVSTTLVFGIGGMAIGNDDFSLTGISLCGLVAIALNAIIPQTQLEEESLVQEETIVEDLVEHAKGKEIN” here?
The protein production was “failed”.

For “MSEPVQLRQHGNAAVAMPLDALLAARTVWRAGQGRATVNGGESTGHAALDALLPDGGWPRRALTELLLPAHGIGEIALLLPTLARMTARGSRVVLVAPPFIPYAPAWQAGGVVLEHLEVVQAEPRAALWAFEQCLRSGACAAVLGWPQTGDARALRRLQVAADSGNCCAFALRDRRHAVNASPAALRLEFLPERDAWQVRKCRGGQVPSQPLRLAH”, which protein production is on record?
The protein production was “failed”.

Which protein production does the source give for “MSEQKAPIIVKRIKKTSGGHHGGAWKIAYADFVTAMMAFFLLMWLLGSTTRGDLEGIAEYFKTPLKVAMQGGTGSGDSSSVIKGGGADLTRKNGQIKKGEVDADRKSYNLKAAQAELERLETAKLKQLKQRLEAAIDRNPTLKQFKRQLLIDITSEGLRIQIVDEQNRPMFNLASAELQPYTKVILHEIAQVLNDVENRISLSGHTDARPYANGERGYSNWELSADRANASRRELIVGGMSEAKMLRVVGLASSVPFTQAKPFDPVNRRISIIVLNKRTEEAITKEASGAEVTDQNGASDALDRRAPPSDVAAPAAAAK” here?
Its protein production is “failed”.

With “MSEQRQDKNLLSEPHKTESDEIEIDLVDIFRKIIAIRRKLYKAIGVGFIIGMIVAVSIPKQYTVKVTLSPEMGSSKGGNGLAGLAASFLGSSATTGEVSDALNASLSSDIVSSTPFLLELLDMKVALSDERTDITLMDYLDRQSSPWWNYVIGLPGMVIGGVKSLFNSDDNDNSLNKVKSGTIELTKEEGIKVNVLKKNISASVDKKTAITSVSVTLQDPKVTAVVADSVVHKLQECIVGYRISKAEEDCIYLEKLYKERQQEYYVAQKKYADYVDTHDNLILQSVRAEQERLQNDMNLAYQVYSQVANQLQVARAKVQEEKPVFAVIEPAVVPQHASSIGLRIYVLLFIFLSVCYTISWNLLGKKIRYILKGSKENQQ” as the sequence, how does the protein production read?
Its protein production is “failed”.

Which protein production does the source give for “MSERAIAHLGPVGTYAEMAALRFQAWLTQQDQQPSRLLACRSIPATLQTLADGAVDYAVVPVENSVEGSVAATLDSLWQLPQLSIQRALILPIAHALISFESDRTAIRQVLSHPQALAQCQQWLQRHLPQAELIPANSTTEALQDLERHPQRAVIASTRAAELYQMPIQSFPINDSPDNRTRFWVISRSPTPGGACTSLNFSLDANVPGALVKPLQILADRRINLSRIESRPTKRSLGEYLFFLDLEADLRDPAIAAAVQAVADCTEQLRVLGSYDSLDFTQSVLVPAQAR” here?
Its protein production is “failed”.

For “MSERKINDEPKSMLLLQRGEEFGKVNNGSKNRAFSSFTKFKIPSQFKTNSSITSFSNRREDIREPNSNSLFSMYNNDVLLKYDTTEVALATTNMFTHTVWNNKSEEIISYGYGSHVSFSCFIGFHY”, which protein production is on record?
The protein production was “failed”.

With “MSERNPILITGAAGEVGGVSRTTVDMLLEQGHPVRAFVRQDDERAHALRQAGAEVFVGDLLTIADVSAALKGVRRIYFSMSLSPYYTDAVSLMAAAARAQGDIEVFVNISEYEQSFMTFEKMTAPEEERRAWLGGLVANWSPQQRAHWVAEQVLDWSGLPTVNIRAAMFVENPLMTWLALEPLANGELRLPFGHHRLAPIAGYDVAELCVKILADPAPHISKSYDLNGPELKDMHGFAEDYAAALGRQVTYVPEDVETWNETYVDTVLGALPHTAEHLKTLTRLMGGGGYRGVTDQLETLLGRPPKTVRWALENHPRIRKLASA” as the sequence, how does the protein production read?
Its protein production is “failed”.

For “MSERVCAVIVTYNRKALLRECLKAVLSQTRPPDHVLVVDNASTDGTPEMLQEEFPQVEVLRLPENQGGAGGFHEGMKRAYEQGVDWLWLMDDDTIPKAKALEALLEAARLPLDPRPRVLASRQLLPNGLPHPTTAFVNPTDPRHPFLWLRLRPRYRPIRWALFTSVLLHRSLVEEHGLPHKAFFIWEDDLEYTARALRRGLGLQVRDSEVIHKSASKPYISATTGENRLFYGVRNRIWVLRSPAFGPLGKAFLALQLLFGLLTYLAFHPSQKSLQEIGRALRAGLTTSPCLEHHHHHH”, which protein production is on record?
The protein production was “failed”.

Which protein production does the source give for “MSESCILFFVKYPEPGKVKTRLGEVVGNDKAAMLYRHFVQDMLQGLARLHADLHICYVPGDADLPEKFKAWLGPQHMFAAQQGLDLGERMKHAMQKAFDDGYDRVVLMGSDIPDYPCELVQKALNDLQHYDAAIGPAFDGGYYLIGFRKDSFCPDVFDGIRWGEADVYQPTVEKMRRARLEVLQLPDWNDVDTVWDLNVLYRTNKNSSFRRSSTYALLRENDALIRQYDIDLPGMAPVEKE” here?
The protein production was “not failed”.

Which protein production does the source give for “MSESNISGPLAGEYRDLAVYGRLATVTMIWGGTFVAGRYLAGGLSPLLAASLRFLLASLALLGFMAVARIPLVRPSLRQFGQLALLGFFGIFFYNLCFFLGLEQVKASRASLIVALNPAVIALASWALFKERLGRRKLLGIALCLCGAALVICSRDPSALAAQAGSWQGDLLILGCVLGWGVYSLFSRGLNHSLGSLQTVTCSILLGTLMLCAATLIRGEFDLQAVARLNLAQGLSLLYLGVLGSALAYIWYYDGLRRIGATRCGVFIALNPLTAVILGALVLGEQLSPVMGLGGALILGGIYQCNKPLAGGAKKAIL” here?
The protein production was “failed”.
